For data set [1], the system named is TNBS-induced colonitis zebrafish model. The data set is described as follows: pathological analysis of intestinal tract tissue. It counts as in vivo. To be noted: 15 μg/mL, 48 hours. From the text:
The fixed zebrafish was observed under the microscope for the colonic tissue and photographed for histopathological analysis, as described in the experimental results.

For data set [2], the system named is copper sulfate induced zebrafish inflammation model. In words: anti-inflammatory effect on copper sulfate-induced inflammation. It counts as in vivo. To be noted: 5 hours; for Inflammation resolution rate (%): copper sulfate. Also noted: numbers of neutrophils (mean ± SE): dose or concentration left out as unconfirmed. The protocol: The specific method was described by d'Alencon et al., BMCBiology.
The images were analyzed by Nikon NIS-ElementsD3.10 advanced image processing software.

For data set [3], the system named is LPS-induced zebrafish inflammation model. The data set is described as follows: anti-inflammatory effect on LPS-induced inflammation. To be noted: 5 hours; for numbers of neutrophils (mean ± SE): model control 17.8.
Method: The zebrafish inflammation model was established by treatment of transgenic neutrophil fluorescent zebrafish through LPS injection.
The zebrafishes were randomly selected and put in the six-well plate, 30 per well. […] The normal control group and model control group were set at the same time. […] Image analysis was performed with Nikon NIS-Elements D3.10 advanced image processing software, the number of neutrophils (N) in zebrafish was calculated, and quantitatively analyzed. The formula of the rate of inflammation resolution was as follows:
Data set [4] has as its system tail amputation injury zebrafish inflammation. The data set is described as follows: anti-inflammatory effect on inflammation of tail amputation injury. To be noted: 5 hours.
Method: Model making: The model of zebrafish inflammation was established by mechanical amputation of tail fins of transgenic neutrophil fluorescent zebrafish.
The transgenic neutrophil fluorescent zebrafish were randomly selected and put in the six-well plate after mechanical amputation of tail fins, 30 per well. […] The normal control group and model control group were set at the same time. […] Image analysis was performed with Nikon NIS-Elements D3.10 advanced image processing software, the number of neutrophils (N) in zebrafish was calculated, and quantitatively analyzed. The formula of the rate of inflammation resolution was as follows:
The conditions of data set [5]: 1 h.
Method: (§1) The enzyme activity of SOD was determined by pyrogallol autoxidation method.
Data set [6] deals with pepsin.
Method: Preparation of simulated gastric fluid: in accordance with the standard of the Pharmacopoeia 2010, namely: take dilute hydrochloric acid 16.4 ml (dilute hydrochloric acid: diluted hydrochloric acid 234 ml with water up to 1000 ml. The HCl contained in the solution should be 9.5% to 10.5%), add about 800 ml of water and pepsin 10 g (Sinopharm, 20141209) and shake well, then add water up to 1000 ml.
as §1
For data set [7], the system named is zebrafish. The data set is described as follows: maximum non-lethal concentration (MNLC), 5 h treatment. It counts as in vivo. To be noted: 2000 μg/mL for 5 hours. As for the experimental part: 30 zebrafishes were treated in each experiment group. During the course of the experiment, the dead zebrafishes were counted and removed. After the M-type SOD treatment, the number of dead zebrafishes in each experiment group was counted, and MNLC was determined. […] Therefore, the concentration of 2000 μg/mL was selected as the maximum concentration in the evaluation of anti-inflammatory effect of SOD.

The test system of data set [8] is TNBS-induced colonitis zebrafish model. The data set is described as follows: therapeutic efficiency on TNBS-induced colonitis (intestinal lumen area). It counts as in vivo. The following applies: 48 hours, model control 197660, normal control 130711. As for the experimental part:
(Please refer to A. Jemal, R. Siegel, J. Xu, et al. Ward. Clinicians, 2010, 277-300, and Intestinal Upregulation of Melanin-Concentrating Hormone in TNBS-Induced Enterocolitis in Adult Zebrafish. Plos One, 2013, 8(12):1524-1528).
Image analysis was performed by image analysis software, the area of zebrafish intestinal lumen was calculated, and quantitative analysis was carried out, and the statistical result was expressed with X±SE:
The therapeutic efficiency of the positive control group was calculated by replacing the treatment group in the above formula with the positive control group;

Data set [9] deals with zebrafish. The data set is described as follows: maximum non-lethal concentration (MNLC), 48 h treatment. The following applies: for Death rate (%) / Death (tail): 48 hours; for Death (tail): 30 zebrafish. It counts as in vivo. The protocol: 30 zebrafishes were treated in each experiment group;
During the experiment course, count dead zebrafish every day and remove dead zebrafish;

For data set [10], the system named is TNBS-induced colonitis zebrafish model. The data set is described as follows: inflammation resolution of TNBS-induced colonitis (intestinal neutrophils). The following applies: intestinal tract, 48 hours, model control 9.4, normal control 1.6.
Method: Transgenic neutrophil fluorescent zebrafish of 3 days after fertilization was used to establish a zebrafish colonitis model after incubation for 48 h in water for fish containing a final concentration of 4.5 μM TNBS.
Model control group: TNBS-induced colonitis zebrafish model (model 2);
Positive control group: prednisone was added to water for fish at a final concentration of 15 μg/mL;
30 transgenic neutrophil fluorescent zebrafishes were treated in each experiment group for 48 hours;
Data set [11] in a line: stability of SOD at different pH. It counts as physicochemical. To be noted: pH 12.
Method: as §1

Values joined by “and” are separate entries in the source; they are usually repeats but may differ in a detail not shown here. Equal values may be shown once. Marks after values point to notes of the source that are not given here.

For `C[C@]12C=CC(=O)C=C1CC[C@@H]1[C@@H]2C(=O)C[C@@]2(C)[C@H]1CC[C@]2(O)C(=O)CO` [prednisone, reference compound], the intestinal histopathology entry in data set [1] is listed as “intestinal mucosal histology was improved significantly”.

Consider `COc1ccc2c(c1)c(CC(=O)O)c(C)n2C(=O)c1ccc(Cl)cc1` [indometacin, reference compound], for which the results for the “Inflammation resolution rate (%)” value in [2] (60 μM), in [3] (60 μM) and in data set [4] (60 μM) were 88*** %, 72% and 62%, respectively.

B1: M-type SOD: mutant high temperature resistant superoxide dismutase, amino acid sequence SEQ ID NO. 4; position 202 mutated from lysine to asparagine versus W-type SOD (protein)
chain: MPYPFKLPDLGYPYEALEPHIDAKTMEIHHQKHHGAYVTNLNAALEKYPYLHGVEVEVLLRHLAALPQDIQTAVRNNGGGHLNHSLFWRLLTPGGAKEPVGELKKAIDEQFGGFQALKEKLTQAAMGRFGSGWAWLVKDPFGKLHVLSTPNQDNPVMEGFTPIVGIDVWEHAYYLKYQNRRADYLQAIWNVLNWDVAEEFFNKA
modifications: amino acid sequence of M-type SOD
notes: position 202 mutated from lysine to asparagine versus W-type SOD
Take B1: in data set [5], the “thermal stability (remaining enzyme activity)” value is listed as “maintained extremely high stability within a wider temperature range”. Also, the “resistance against pepsin degradation” value in data set [6] is given as “significantly better than ordinary SOD”. In addition, in [7], the “toxic effects on zebrafish” value is listed as “no toxic effects”. Further, the “numbers of neutrophils (mean ± SE)” value is 14.9 and 14.9 ± 0.6 in [2] (model control 15.5); 17.7 and 17.7 ± 1.4 in data set [3] (15 μg/mL); 14.9 and 14.9 ± 1.0 in [3] (50 μg/mL). For the same molecule, the “Inflammation resolution rate (%)” value in data set [2] (15 μg/mL) stood at 4%; in data set [2] (50 μg/mL), 24%; in [2] (150 μg/mL) it was 47%; in [2] (450 μg/mL), 77%; in [2] (1350 μg/mL), 91%; in [2] (2000 μg/mL), 92%. Besides, the “Inflammation resolution rate (%)” value in [3] (15 μg/mL) came out at 0%; in [3] (50 μg/mL), 16%; in data set [3] (150 μg/mL) it was 31%; in data set [3] (450 μg/mL) it was 34%; in data set [3] (1350 μg/mL), 58%; in [3] (2000 μg/mL), 65%. Besides, the “Inflammation resolution rate (%)” value is 29% in data set [4] (150 μg/mL), 51% in data set [4] (450 μg/mL), 58% in data set [4] (1350 μg/mL) and 59% in data set [4] (2000 μg/mL). For the same molecule, the figures for the “intestinal lumen area (mean ± SE)” value in [8] (15 μg/mL in water for fish), in [8] (50 μg/mL in water for fish) and in [8] (150 μg/mL in water for fish) were 153560 ± 6080, 142595 ± 3167 and 141259 ± 5359, respectively. Further, the intestinal histopathology result in data set [1] (50 μg/mL and 150 μg/mL) was “the inflammation of intestinal mucosa was significantly improved”. The “Death rate (%)” value in data set [9] (150 μg/mL) is 0%; in data set [9] (200 μg/mL), 20%; in data set [9] (330 μg/mL), 100%; in data set [9] (1000 μg/mL), 100%; in data set [9] (3000 μg/mL), 100%. Also, the “Death (tail)” value in [9] (150 μg/mL) worked out at 0 tail; in data set [9] (200 μg/mL) it was 6 tail; in data set [9] (330 μg/mL), 30 tail; in data set [9] (1000 μg/mL), 30 tail; in data set [9] (3000 μg/mL), 30 tail. In data set [9] (zebrafish, treatment for 48 hours), the MNLC came to 150 µg/mL. In addition, the “number of neutrophils (mean ± SE)” value in data set [10] (15 μg/mL) amounted to 6.8 ± 0.88; in data set [10] (50 μg/mL), 5.6 ± 0.45; in [10] (150 μg/mL), 3.7 ± 0.53. Moreover, the activity kept in data set [11] is recorded as 97%.

Source of the values: patent US10391048B2, “Recombinant high-stability superoxide dismutase and application thereof” (Hangzhou Redox Pharmatech Co., Ltd., priority 2016, dated 2019).
